Measurements from article PMC8464517.

Target: T1, GLUT1 (Homo sapiens), P11166
T1 chain: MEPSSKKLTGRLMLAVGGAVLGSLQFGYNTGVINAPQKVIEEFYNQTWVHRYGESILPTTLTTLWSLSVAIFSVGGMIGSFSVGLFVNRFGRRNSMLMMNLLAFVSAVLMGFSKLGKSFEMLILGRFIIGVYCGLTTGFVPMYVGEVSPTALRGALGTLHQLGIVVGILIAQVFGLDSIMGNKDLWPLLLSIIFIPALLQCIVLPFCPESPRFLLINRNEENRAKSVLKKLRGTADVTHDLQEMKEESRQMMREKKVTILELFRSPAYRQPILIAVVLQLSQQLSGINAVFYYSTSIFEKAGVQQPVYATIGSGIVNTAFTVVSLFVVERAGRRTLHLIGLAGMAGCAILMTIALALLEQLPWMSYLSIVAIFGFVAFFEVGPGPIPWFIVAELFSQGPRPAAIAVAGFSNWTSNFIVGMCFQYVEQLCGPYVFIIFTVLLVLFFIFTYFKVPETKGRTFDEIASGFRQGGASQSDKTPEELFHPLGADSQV
Test: ITC
Conditions: PIP2/MSP1E3 nanodisc; remark: other sources report otherwise

Kd: 3.8 µM
B1: TXNIP, Q9H3M7 (protein)
chain: MVMFKKIKSFEVVFNDPEKVYGSGEKVAGRVIVEVCEVTRVKAVRILACGVAKVLWMQGSQQCKQTSEYLRYEDTLLLEDQPTGENEMVIMRPGNKYEYKFGFELPQGPLGTSFKGKYGCVDYWVKAFLDRPSQPTQETKKNFEVVDLVDVNTPDLMAPVSAKKEKKVSCMFIPDGRVSVSARIDRKGFCEGDEISIHADFENTCSRIVVPKAAIVARHTYLANGQTKVLTQKLSSVRGNHIISGTCASWRGKSLRVQKIRPSILGCNILRVEYSLLIYVSVPGSKKVILDLPLVIGSRSGLSSRTSSMASRTSSEMSWVDLNIPDTPEAPPCYMDVIPEDHRLESPTTPLLDDMDGSQDSPIFMYAPEFKFMPPPTYTEVDPCILNNNVQ
